# Laboratory results taken from the RNAGym collection of RNA variant scans (doi:10.7554/elife.80360).
# B1: HDV Ribozyme (parent)
# chain: GGCCGGCAUGGUCCCAGCCUCCUCGCUGGCGCCGGCUGGGCAACAUUCCGAGGGGACCGUCCCCUCGGUAAUGGCGAAUGGGACCCA
# Variants of: B1
# Test: self-cleavage, relative activity (ratio to wild type); higher = more cleavage; co-transcriptional
row,Variant,self-cleavage
1,UGCCGGCAUGGUCCCAGCCUCCUCGCUGGCGCCGGCUGGGCAACAUUCCAAGGGGACCGUCCCCUCGGUAAUGGCGAAUGGGACCCA,0.475
2,UGCCGGCAUGGUCCCAGCCUCCUCGCUGGCGCCGGCUGGGCAACAUUCCCAGGGGACCGUCCCCUCGGUAAUGGCGAAUGGGACCCA,0.203
3,UGCCGGCAUGGUCCCAGCCUCCUCGCUGGCGCCGGCUGGGCAACACUCCGAGGGGACCGUCCCCUCGGUAAUGGCGAAUGGGACCCA,0.277
4,UGCCGGCAUGGUCCCAGCCUCCUCGCUGGCGCCGGCUGGGCAACAUUCCGAGGGGACCGUCCCCACGGUAAUGGCGAAUGGGACCCA,0.191
5,UGCCGGCAUGGUCCCAGCCUCCUCGCUGGCGCCGGCUGGGCAACAUUCCGAGGGGACCGUCCCCGCGGUAAUGGCGAAUGGGACCCA,0.17
6,UGCCGGCAUGGUCCCAGCCUCCUCGCGGGCGCCGGCUGGGCAACAUUCCGAGGGGACCGUCCCCUCGGUAAUGGCGAAUGGGACCCA,0.522
7,GACCGGCAUGGUCCCAGCCUCCUCGCUGGCGCCGGCUGGGCAUCAUUCCGAGGGGACCGUCCCCUCGGUAAUGGCGAAUGGGACCCA,0.0203
8,UGCCGGCAUGGUCCCAGCCUCCUCGCUGGCGCCGGCUGGGCAACAUUCCGAGGGGACCGUCCCCUCGGUAAUGUCGAAUGGGACCCA,0.358
9,UGCCGGCAUGGUCCCAGCCUCCUCGCUGGCGCCGGCUGGGCAACAUUCCGAGGGGACCGUCCCCUCGGUAAUGACGAAUGGGACCCA,0.288
10,UGCCGGCAUGGUCCCAGCCUCCUCGCUGGCGCCGGCUGGGCAACAUUCCGAGGGGACCGUCCCCUCGGUAAUGCCGAAUGGGACCCA,0.262
11,UGCCGGCAUGGUCCCAGCCUCCUCGCUGGCGCCGGCUGGGCAACAUUCCGAGGGGACCGUCCCCUCGGUAACGGCGAAUGGGACCCA,0.237
12,UGCCGGCAUGGUCCCAGCCUCCUCGCUGGCGCCGGCUGGGCAACAUUCCGAGGGGACCGUCCCCUCGGUAAAGGCGAAUGGGACCCA,0.466
13,UGCCGGCAUGGUCCCAGCCUCCUCGCUGGCGCCGGCUGGGCAACAUUCCGAGGUGACCGUCCCCUCGGUAAUGGCGAAUGGGACCCA,0.358
14,UGCCGGCAUGGUCCCAGCCUCCUCGCUGGCGCCGGCUGGGCAACAUUCCGAGGGGACCGUCCCCUCGCUAAUGGCGAAUGGGACCCA,0.431
15,UGCCGGCAUGGUCCCAGCCUCCUCGCUCGCGCCGGCUGGGCAACAUUCCGAGGGGACCGUCCCCUCGGUAAUGGCGAAUGGGACCCA,0.185
16,UGCCGGCAUGGUCCCAGCCUCCUCGCUGGCGCCGGCUGUGCAACAUUCCGAGGGGACCGUCCCCUCGGUAAUGGCGAAUGGGACCCA,0.337

row,Variant,self-cleavage
1,UGCCGGCAUGGUCCCAGCCUCCUCGCUGGCGCCGGCUGCGCAACAUUCCGAGGGGACCGUCCCCUCGGUAAUGGCGAAUGGGACCCA,0.397
2,UGCCGGCAUGGCCCCAGCCUCCUCGCUGGCGCCGGCUGGGCAACAUUCCGAGGGGACCGUCCCCUCGGUAAUGGCGAAUGGGACCCA,0.499
3,UGCCGGCAUGGGCCCAGCCUCCUCGCUGGCGCCGGCUGGGCAACAUUCCGAGGGGACCGUCCCCUCGGUAAUGGCGAAUGGGACCCA,0.369
4,UGCCGGCAUGGACCCAGCCUCCUCGCUGGCGCCGGCUGGGCAACAUUCCGAGGGGACCGUCCCCUCGGUAAUGGCGAAUGGGACCCA,0.434
5,UGCCGGCAUGGUCCCAGCCUCCUCGCUGGCGCCGGCUGGGCAACAUUCCGAAGGGACCGUCCCCUCGGUAAUGGCGAAUGGGACCCA,0.356
6,UGCCGGCAUGGUCCCAGCCUCCUCGCUGGCGCCGGCUGGGCAACAUUCCGAUGGGACCGUCCCCUCGGUAAUGGCGAAUGGGACCCA,0.372
7,UGCCGGCAUGGUCCCAGCCUCCUCGCUGGCGCCGGCUGGGCAACAUUCCGACGGGACCGUCCCCUCGGUAAUGGCGAAUGGGACCCA,0.332
8,GACCGGCAUGGUCCCAGCCUCCUCGCUGGCGCCGGCUGGGCAACAUUCCGAGGGGACCGUCCCCUCGGUAAUGGCGAAUGGGACCCA,0.2
9,UGCCGGCAUGGUCCCAGCCUCCUCGCUGGCGCCGCCUGGGCAACAUUCCGAGGGGACCGUCCCCUCGGUAAUGGCGAAUGGGACCCA,0.191
10,UGCCGGCAUGGUCCCAGCCUCCUCGCUGGCGCCGGCUGGGCAACAUGCCGAGGGGACCGUCCCCUCGGUAAUGGCGAAUGGGACCCA,0.405
11,UGCCGGCAUGGUCCCAGCCUCCCCGCUGGCGCCGGCUGGGCAACAUUCCGAGGGGACCGUCCCCUCGGUAAUGGCGAAUGGGACCCA,0.665
12,UGCCGGCAUGGUCCCAGCCUCCGCGCUGGCGCCGGCUGGGCAACAUUCCGAGGGGACCGUCCCCUCGGUAAUGGCGAAUGGGACCCA,0.277
13,UGCCGGCAUGGUCCCAGCCUCCACGCUGGCGCCGGCUGGGCAACAUUCCGAGGGGACCGUCCCCUCGGUAAUGGCGAAUGGGACCCA,0.203
14,GACCGGCGUGGUCCCAGCCUCCUCGCUGGCGCCGGCUGGGCAACAUUCCGAGGGGACCGUCCCCUCGGUAAUGGCGAAUGGGACCCA,0.0773
15,GACCGGCAUGGUCCCCGCCUCCUCGCUGGCGCCGGCUGGGCAACAUUCCGAGGGGACCGUCCCCUCGGUAAUGGCGAAUGGGACCCA,0.0733
16,GACCGGCAUGGUCCCGGCCUCCUCGCUGGCGCCGGCUGGGCAACAUUCCGAGGGGACCGUCCCCUCGGUAAUGGCGAAUGGGACCCA,0.237
